We go through 31 molecules from patent US12139520B2 (priority 2020, dated 2024).

B1: SEQ ID NO: 253 (peptide)
peptide: KCNTATCTVQ[Cit]LAHQIYQFTKDKDNVAPPTNVGSNG[Hyp]-NH2
modifications: disulfide 2-7 (inferred); ends not checked
B2: SEQ ID NO: 232 (peptide)
peptide: GCRTGTCTVQRLAHQIYQFTNKDKDNVAPRSKISPQQ[Hyp]-NH2
modifications: disulfide 2-7 (inferred); ends not checked
B3: SEQ ID NO: 249 (peptide)
peptide: KCNTATCTVQ[Cit]LAHQIYQFADKDKDNVAPPTNVGSNG[Hyp]-NH2
modifications: disulfide 2-7 (inferred); ends not checked
B4: SEQ ID NO: 238 (peptide)
peptide: GCRTGTCTVQRLAHQIYQFTNKDKDNVAPRSKISPQF[Hyp]-NH2
modifications: disulfide 2-7 (inferred); ends not checked
B5: SEQ ID NO: 243 (peptide)
peptide: KCNTATCTVQ[Cit]LAAQIYQFTDKDKDNVAPPTNVGSNG[Hyp]-NH2
modifications: disulfide 2-7 (inferred); ends not checked
B6: SEQ ID NO: 245 (peptide)
peptide: RCNASTCTVN[Cit]LADQITQFSNKDKAQVSPPTEVGPNS[Hyp]-NH2
modifications: disulfide 2-7 (inferred); ends not checked
B7: SEQ ID NO: 236 (peptide)
peptide: GCRTGTCTVQRLAHQIYQFTDKFKDNVAPRSKISPQM[Hyp]-NH2
modifications: disulfide 2-7 (inferred); ends not checked
B8: SEQ ID NO: 25 (peptide)
peptide: KCNTATCTVQRLAHQIYQFTDKDADNVAPPTNVGSNG[Hyp]-NH2
modifications: disulfide 2-7 (inferred); ends not checked
B9: SEQ ID NO: 230 (peptide)
peptide: GCRTGTCTVQRLAHQIYQFTDKFKDNVAPRSKISPQTY
B10: SEQ ID NO: 241 (peptide)
peptide: B9 peptide with Y38A
B11: SEQ ID NO: 235 (peptide)
peptide: B9 peptide with Y38P
B12: SEQ ID NO: 239 (peptide)
peptide: B9 peptide with Y38F
B13: SEQ ID NO: 237 (peptide)
peptide: B9 peptide with D21N, F23D, Y38M
B14: SEQ ID NO: 242 (peptide)
peptide: B9 peptide with D21N, F23D, Y38R
B15: SEQ ID NO: 234 (peptide)
peptide: KCNTATCATQRLANFLVQFTDKDKDNVAPRSKISPQGY
B16: SEQ ID NO: 255 (peptide)
peptide: KCNTATCTVQ[Cit]LAHQIYQFTDKDKDNVAPTNVGSNG[Hyp]-NH2
modifications: disulfide 2-7 (inferred); ends not checked
B17: SEQ ID NO: 240 (peptide)
peptide: GCRFGTCTVQRLAHQIYQFTDKDKDNVAPSSKISPQT[Hyp]-NH2
modifications: disulfide 2-7 (inferred); ends not checked
B18: SEQ ID NO: 250 (peptide)
peptide: KCNTATCTVQ[Cit]LAHQIYQFTDKDADNVAPPTNVGSNG[Hyp]-NH2
modifications: disulfide 2-7 (inferred); ends not checked
B19: SEQ ID NO: 233 (peptide)
peptide: KCNTATCTVQRLAEQIYQFTDKDKDNVAPPTNVGSNG[Hyp]-NH2
modifications: disulfide 2-7 (inferred); not fully specified (N-terminus); ends not checked; also: N-terminal Lys carries two C20DA-OEG-γGlu-OEG arms ((...)2-K)
B20: SEQ ID NO: 247 (peptide)
peptide: KCNTSTCTVA[Cit]LADQITQFSDKDKANVSPPTEVGPNS[Hyp]-NH2
modifications: disulfide 2-7 (inferred); ends not checked
B21: SEQ ID NO: 229 (peptide)
peptide: GCRFGTCTVQRLAHQIYQFTDKDKDNVAPRSNIGPQG[Hyp]-NH2
modifications: disulfide 2-7 (inferred); ends not checked
B22: SEQ ID NO: 254 (peptide)
peptide: KCNTATCTVQ[Cit]LAHQIYQFTDKDKDNVPPTNVGSNG[Hyp]-NH2
modifications: disulfide 2-7 (inferred); ends not checked
B23: SEQ ID NO: 244 (peptide)
peptide: KCNTSTCTVA[Cit]LADQITQFSNKDKAQVSPPTEVGPNS[Hyp]-NH2
modifications: disulfide 2-7 (inferred); ends not checked
B24: SEQ ID NO: 251 (peptide)
peptide: KCNTATCTVQ[Cit]LAHQIYQFTDKDKDNAAPPTNVGSNG[Hyp]-NH2
modifications: disulfide 2-7 (inferred); ends not checked
B25: SEQ ID NO: 252 (peptide)
peptide: KCNTATCTVQ[Cit]LAHQIYQFTDKDKDNVAPATNVGSNG[Hyp]-NH2
modifications: disulfide 2-7 (inferred); ends not checked
B26: SEQ ID NO: 24 (peptide)
peptide: KCNTATCTVQRLAHQIYQFTAKDKDNVAPPTNVGSNG[Hyp]-NH2
modifications: disulfide 2-7 (inferred); ends not checked
B27: SEQ ID NO: 248 (peptide)
peptide: KCNTATCTVQ[Cit]LAHQIYQFTDKDKDNVAPRTKVGSNG[Hyp]-NH2
modifications: disulfide 2-7 (inferred); ends not checked
B28: SEQ ID NO: 231 (peptide)
peptide: {C20 diacid-γGlu}-KCNTYTCTVQRLAHQIYQFTDKDKDNVAPPTNVGSNG[Hyp]-NH2
modifications: disulfide 2-7 (inferred); ends not checked
B29: SEQ ID NO: 3 (peptide)
peptide: KCNFATCTVQRLAHQIYQFTDKDKDNVAPRTKVGSNG[Hyp]-NH2
modifications: disulfide 2-7 (inferred); ends not checked
B30: SEQ ID NO: 246 (peptide)
peptide: KCNTATCTVQ[Cit]LAHQIAQFTDKDKDNVAPPTNVGSNG[Hyp]-NH2
modifications: disulfide 2-7 (inferred); ends not checked
B31: SEQ ID NO: 26 (peptide)
peptide: KCNTATCTVQRLAHQIYQFTDKDKANVAPPTNVGSNG[Hyp]-NH2
modifications: disulfide 2-7 (inferred); ends not checked

Substitutions are numbered along the chain they refer to. Numbered stars: 1 amine (or outer) side, 2 acyl side, 3 side chain; on linkers, the order of the positions; unused ones are H or OH. Bridge positions count the residues as written; N and C are the ends. Square brackets hold non-standard residues; d marks the D form. Ends that are not written are not given here. * marks the point of attachment. C20 diacid = O=C(O)CCCCCCCCCCCCCCCCCCC(=O)*; γGlu = O=C(O)[C@H](CCC(=O)[*:2])N[*:1]; Hyp = O=C(O)[C@@H]1C[C@@H](O)CN1; Cit = NC(=O)NCCC[C@H](N)C(=O)O

The first test addresses T1, hAMY3R (human, UniProt P30988).
T1 sequence 1: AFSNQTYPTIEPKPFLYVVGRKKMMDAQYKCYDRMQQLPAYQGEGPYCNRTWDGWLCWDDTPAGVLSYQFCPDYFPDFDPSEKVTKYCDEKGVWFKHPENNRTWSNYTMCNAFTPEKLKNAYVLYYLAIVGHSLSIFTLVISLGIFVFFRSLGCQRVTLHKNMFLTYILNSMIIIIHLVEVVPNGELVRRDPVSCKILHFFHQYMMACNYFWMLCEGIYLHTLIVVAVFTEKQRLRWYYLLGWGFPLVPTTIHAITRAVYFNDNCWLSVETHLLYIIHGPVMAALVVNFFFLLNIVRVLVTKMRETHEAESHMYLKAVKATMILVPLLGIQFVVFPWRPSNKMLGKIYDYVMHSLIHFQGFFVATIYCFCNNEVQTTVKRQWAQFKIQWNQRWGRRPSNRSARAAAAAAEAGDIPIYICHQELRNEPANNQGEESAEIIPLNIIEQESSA
T1 sequence 2: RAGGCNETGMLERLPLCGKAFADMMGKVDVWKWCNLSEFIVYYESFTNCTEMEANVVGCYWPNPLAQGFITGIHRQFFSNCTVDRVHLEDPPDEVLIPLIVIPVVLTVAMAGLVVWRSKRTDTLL
The test can be described thus: cell-based or functional assay.
Consider B1, for which the “hAMY3R EC50 (cAMP)” value came to 0.004 nM.
Take B2: the “hAMY3R EC50 (cAMP)” value worked out at 0.213 nM.
Regarding B3, the “hAMY3R EC50 (cAMP)” value was 0.006 nM.
On to B4, for which the “hAMY3R EC50 (cAMP)” value was 0.235 nM.
Consider B5, for which the “hAMY3R EC50 (cAMP)” value is 0.018 nM.
For the molecule B6, the “hAMY3R EC50 (cAMP)” value amounted to 0.017 nM.
For the molecule B7, the “hAMY3R EC50 (cAMP)” value amounted to 0.234 nM.
As to B8, the “hAMY3R EC50 (cAMP)” value came out at 0.008 nM.
Turning to B9, the “hAMY3R EC50 (cAMP)” value was determined as 0.208 nM.
For B10, the “hAMY3R EC50 (cAMP)” value is 0.242 nM.
In the case of B11, the “hAMY3R EC50 (cAMP)” value was 0.233 nM.
As for B12, the “hAMY3R EC50 (cAMP)” value was determined as 0.236 nM.
Same read-out and setting: the result for B13 reads 0.235 nM.
B14: the “hAMY3R EC50 (cAMP)” value came out at 0.248 nM.
As to B15, the “hAMY3R EC50 (cAMP)” value was 0.227 nM.
Same read-out and setting: the result for B16 reads 0.007 nM; that for B17, 0.24 nM; that for B18, 0.011 nM.
For B19, the “hAMY3R EC50 (cAMP)” value was 0.22 nM.
Still for that read-out and setting: the result for B20 reads 0.004 nM; that for B21, 0.207 nM; that for B22, 0.006 nM.
As for B23, the “hAMY3R EC50 (cAMP)” value came out at 0.006 nM.
On to B24, for which the “hAMY3R EC50 (cAMP)” value came out at 0.006 nM.
As for B25, the “hAMY3R EC50 (cAMP)” value was determined as 0.006 nM.
On the same count and under the same terms, the result for B26 reads 0.008 nM; that for B27, 0.027 nM.
For B28, the “hAMY3R EC50 (cAMP)” value was 0.209 nM.
Regarding B29, the “hAMY3R EC50 (cAMP)” value worked out at 0.006 nM.
For the molecule B30, the “hAMY3R EC50 (cAMP)” value was determined as 0.01 nM.
The same measure, in the same setting: the result for B31 reads 0.008 nM.

For another test, the target named is hAM1R (human, UniProt Q16602). Nature of the test: cell-based or functional assay.
With B1, the “hAM1R EC50 (cAMP)” value was greater than 5000 nM.
As for B2, the “hAM1R EC50 (cAMP)” value is greater than 5000 nM.
For B3, the “hAM1R EC50 (cAMP)” value is greater than 5000 nM.
Same read-out and setting: the result for B4 reads greater than 5000 nM; that for B5, 3340 nM; that for B6, greater than 5000 nM.
On the same count and under the same terms, the result for B7 reads 2240 nM; that for B8, greater than 5000 nM.
Still for that read-out and setting: the result for B9 reads greater than 5000 nM; that for B10, 2290 nM; that for B11, 1420 nM.
Turning to B12, the “hAM1R EC50 (cAMP)” value was greater than 5000 nM.
Still for that read-out and setting: the result for B13 reads 4250 nM; that for B14, greater than 5000 nM.
Same read-out and setting: the result for B15 reads greater than 5000 nM; that for B16, greater than 5000 nM; that for B17, greater than 5000 nM.
As to B18, the “hAM1R EC50 (cAMP)” value is greater than 5000 nM.
Consider B19, for which the “hAM1R EC50 (cAMP)” value was greater than 5000 nM.
Same read-out and setting: the result for B20 reads greater than 5000 nM; that for B21, 2980 nM; that for B22, greater than 5000 nM.
For B23, the “hAM1R EC50 (cAMP)” value is greater than 5000 nM.
Turning to B24, the “hAM1R EC50 (cAMP)” value was greater than 5000 nM.
Still for that read-out and setting: the result for B25 reads greater than 5000 nM; that for B26, greater than 5000 nM.
Take B27: the “hAM1R EC50 (cAMP)” value was 3590 nM.
Turning to B28, the “hAM1R EC50 (cAMP)” value is greater than 5000 nM.
Take B29: the “hAM1R EC50 (cAMP)” value was determined as 124 nM.
Take B30: the “hAM1R EC50 (cAMP)” value was greater than 5000 nM.
On to B31, for which the “hAM1R EC50 (cAMP)” value was greater than 5000 nM.
